B1: SDGF-TB1G1 (TB1G1 displayed on 293F cells) [designed binder] / Biotinylated His-Avi-TEAD1(194–411) [modified: biotin (BirA-500 kit); biotin (BirA-500 kit)] [not stated] (parent complex)
chain 1: PDEYIERAKECCKKGDIQCCLRYFEESGDPNVMLICLFCP
chain 2: RSIGTTKLRLVEFSAFLEQQRDPDSYNKHLFVHIGHANHSYSDPLLESVDIRQIYDKFPEKKGGLKELFGKGPQNAFFLVKFWADLNCNIQDDAGAFYGVTSQYESSENMTVTCSTKVCSFGKQVVEKVETEYARFENGRFVYRINRSPMCEYMINFIHKLKHLPEKYMMNSVLENFTILLVVTNRDTQETLLCMACVFEVSNSEHGAQHHIYRLVKD

Variants of: B1
Experiment: mammalian (293F) surface display of a site-saturation mutagenesis library (every non-Cys single substitution), FACS sorting on biotinylated TEAD1 YBD, two sorting rounds, Illumina sequencing with perfect-match mapping; 20 nM biotinylated TEAD, monovalent 2-step stain (TEAD alone 30 min at 4 °C, dilute, pellet, then 20 nM streptavidin-Alexa Fluor 647), flow sorting on a BD Aria

Variant	enrichment
chain 1 PDEYIERAVECCKKGDIQCCLRYFEESGDPNVMLICLFCP [chain 1 K9V]	-8.88 log2 (fold change of variant abundance after two TEAD sorts vs input, normalised to TB1G1)
chain 1 PDEYIERARECCKKGDIQCCLRYFEESGDPNVMLICLFCP [chain 1 K9R]	-1.3 log2 (fold change of variant abundance after two TEAD sorts vs input, normalised to TB1G1)
chain 1 PDEYIERAIECCKKGDIQCCLRYFEESGDPNVMLICLFCP [chain 1 K9I]	-3.03 log2 (fold change of variant abundance after two TEAD sorts vs input, normalised to TB1G1)
chain 1 PDEYIERAWECCKKGDIQCCLRYFEESGDPNVMLICLFCP [chain 1 K9W]	-4.41 log2 (fold change of variant abundance after two TEAD sorts vs input, normalised to TB1G1)
chain 1 PDEYIERAQECCKKGDIQCCLRYFEESGDPNVMLICLFCP [chain 1 K9Q]	1.1 log2 (fold change of variant abundance after two TEAD sorts vs input, normalised to TB1G1)
chain 1 PDEYIERANECCKKGDIQCCLRYFEESGDPNVMLICLFCP [chain 1 K9N]	3.31 log2 (fold change of variant abundance after two TEAD sorts vs input, normalised to TB1G1)
chain 1 PDEYIARAKECCKKGDIQCCLRYFEESGDPNVMLICLFCP [chain 1 E6A]	-0.676 log2 (fold change of variant abundance after two TEAD sorts vs input, normalised to TB1G1)
chain 1 PDEYILRAKECCKKGDIQCCLRYFEESGDPNVMLICLFCP [chain 1 E6L]	-0.404 log2 (fold change of variant abundance after two TEAD sorts vs input, normalised to TB1G1)
chain 1 PDEYITRAKECCKKGDIQCCLRYFEESGDPNVMLICLFCP [chain 1 E6T]	-0.921 log2 (fold change of variant abundance after two TEAD sorts vs input, normalised to TB1G1)
chain 1 PDEYIYRAKECCKKGDIQCCLRYFEESGDPNVMLICLFCP [chain 1 E6Y]	-2.33 log2 (fold change of variant abundance after two TEAD sorts vs input, normalised to TB1G1)
chain 1 PDEYIIRAKECCKKGDIQCCLRYFEESGDPNVMLICLFCP [chain 1 E6I]	-1.56 log2 (fold change of variant abundance after two TEAD sorts vs input, normalised to TB1G1)
chain 1 PDEYIMRAKECCKKGDIQCCLRYFEESGDPNVMLICLFCP [chain 1 E6M]	-2.04 log2 (fold change of variant abundance after two TEAD sorts vs input, normalised to TB1G1)
chain 1 PDEYIVRAKECCKKGDIQCCLRYFEESGDPNVMLICLFCP [chain 1 E6V]	-1.55 log2 (fold change of variant abundance after two TEAD sorts vs input, normalised to TB1G1)
chain 1 PDEYISRAKECCKKGDIQCCLRYFEESGDPNVMLICLFCP [chain 1 E6S]	-1.09 log2 (fold change of variant abundance after two TEAD sorts vs input, normalised to TB1G1)
chain 1 PDEYMERAKECCKKGDIQCCLRYFEESGDPNVMLICLFCP [chain 1 I5M]	-1.87 log2 (fold change of variant abundance after two TEAD sorts vs input, normalised to TB1G1)
chain 1 PDEYVERAKECCKKGDIQCCLRYFEESGDPNVMLICLFCP [chain 1 I5V]	-0.274 log2 (fold change of variant abundance after two TEAD sorts vs input, normalised to TB1G1)
chain 1 PDEYAERAKECCKKGDIQCCLRYFEESGDPNVMLICLFCP [chain 1 I5A]	-1.2 log2 (fold change of variant abundance after two TEAD sorts vs input, normalised to TB1G1)
chain 1 PDEYLERAKECCKKGDIQCCLRYFEESGDPNVMLICLFCP [chain 1 I5L]	-0.381 log2 (fold change of variant abundance after two TEAD sorts vs input, normalised to TB1G1)
chain 1 PDEYNERAKECCKKGDIQCCLRYFEESGDPNVMLICLFCP [chain 1 I5N]	-1.34 log2 (fold change of variant abundance after two TEAD sorts vs input, normalised to TB1G1)

Variant	enrichment
chain 1 PDEYWERAKECCKKGDIQCCLRYFEESGDPNVMLICLFCP [chain 1 I5W]	-7.46 log2 (fold change of variant abundance after two TEAD sorts vs input, normalised to TB1G1)
chain 1 PDEYGERAKECCKKGDIQCCLRYFEESGDPNVMLICLFCP [chain 1 I5G]	-3.97 log2 (fold change of variant abundance after two TEAD sorts vs input, normalised to TB1G1)
chain 1 PDEYFERAKECCKKGDIQCCLRYFEESGDPNVMLICLFCP [chain 1 I5F]	-8.36 log2 (fold change of variant abundance after two TEAD sorts vs input, normalised to TB1G1)
chain 1 PDEYKERAKECCKKGDIQCCLRYFEESGDPNVMLICLFCP [chain 1 I5K]	-1.5 log2 (fold change of variant abundance after two TEAD sorts vs input, normalised to TB1G1)
chain 1 PDEYRERAKECCKKGDIQCCLRYFEESGDPNVMLICLFCP [chain 1 I5R]	-3.27 log2 (fold change of variant abundance after two TEAD sorts vs input, normalised to TB1G1)
chain 1 PDEYIERGKECCKKGDIQCCLRYFEESGDPNVMLICLFCP [chain 1 A8G]	-4.11 log2 (fold change of variant abundance after two TEAD sorts vs input, normalised to TB1G1)
chain 1 PDEYIERKKECCKKGDIQCCLRYFEESGDPNVMLICLFCP [chain 1 A8K]	-4.73 log2 (fold change of variant abundance after two TEAD sorts vs input, normalised to TB1G1)
chain 1 PDEYIERQKECCKKGDIQCCLRYFEESGDPNVMLICLFCP [chain 1 A8Q]	-6 log2 (fold change of variant abundance after two TEAD sorts vs input, normalised to TB1G1)
chain 1 PDEYIERYKECCKKGDIQCCLRYFEESGDPNVMLICLFCP [chain 1 A8Y]	-3.35 log2 (fold change of variant abundance after two TEAD sorts vs input, normalised to TB1G1)
chain 1 PDEYIERRKECCKKGDIQCCLRYFEESGDPNVMLICLFCP [chain 1 A8R]	-5.84 log2 (fold change of variant abundance after two TEAD sorts vs input, normalised to TB1G1)
chain 1 PDEYIERSKECCKKGDIQCCLRYFEESGDPNVMLICLFCP [chain 1 A8S]	-2.79 log2 (fold change of variant abundance after two TEAD sorts vs input, normalised to TB1G1)
chain 1 PDEYIERAKECCKKGDIQCCLRYFEESGDPNVILICLFCP [chain 1 M33I]	-3.16 log2 (fold change of variant abundance after two TEAD sorts vs input, normalised to TB1G1)
chain 1 HDEYIERAKECCKKGDIQCCLRYFEESGDPNVMLICLFCP [chain 1 P1H]	-0.884 log2 (fold change of variant abundance after two TEAD sorts vs input, normalised to TB1G1)
chain 1 KDEYIERAKECCKKGDIQCCLRYFEESGDPNVMLICLFCP [chain 1 P1K]	-0.294 log2 (fold change of variant abundance after two TEAD sorts vs input, normalised to TB1G1)
chain 1 QDEYIERAKECCKKGDIQCCLRYFEESGDPNVMLICLFCP [chain 1 P1Q]	-0.836 log2 (fold change of variant abundance after two TEAD sorts vs input, normalised to TB1G1)
chain 1 FDEYIERAKECCKKGDIQCCLRYFEESGDPNVMLICLFCP [chain 1 P1F]	-1.3 log2 (fold change of variant abundance after two TEAD sorts vs input, normalised to TB1G1)
chain 1 IDEYIERAKECCKKGDIQCCLRYFEESGDPNVMLICLFCP [chain 1 P1I]	-2.27 log2 (fold change of variant abundance after two TEAD sorts vs input, normalised to TB1G1)
chain 1 EDEYIERAKECCKKGDIQCCLRYFEESGDPNVMLICLFCP [chain 1 P1E]	1.12 log2 (fold change of variant abundance after two TEAD sorts vs input, normalised to TB1G1)

Variants of: B1
Experiment: not given

ratio to parent	Variant
~0.01	chain 1 M33A
~0.07	chain 1 E25A
